Experimental data published in the supplement of paper PMC7877785.
± gives the uncertainty stated by the source.

Experiment: self-splicing fitness, log relative to wild type (ln ratio); higher = more splicing; Tetrahymena group I intron in knt gene, E. coli kanamycin selection, DiMSum; sequences stand for … in CUCUCU…GGAGGGAAAAGUUAUCAGGCAUGCACCUGGUAGCUAGUCUUUAAACCAAUAGAUUGCAUCGGUUUAAAAGGCAAGACCGUCAAAUUGCGGGAAAGGGGUCAACAGCCGUUCAGUACCAAGUCUCAGGGGAAACUUUGAGAUGGCCUUGCAAAGGGUAUGGUAAUAAGCUGACGGACAUGGUCCUAACCACGCAGCCAAGUCCUAAGUCAACAGAUCUUCUGUUGAUAUGGAUGCAGUUCACAGACUAAAUGUCGGUCGGGGAAGAUGUAUUCUUCUCAUAAGAUAUAGUCGGACCUCUCCUUAAUGGGAGCUAGCGGAUGAAGUGAUGCAACACUGGAGCCGCUGGGAACUAAUUUGUAUGCGAAAGUAUAUUGAUUAGUUUUGGAGUACUCGUGGUCG
Procedure, shortened: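 DiMSum derived fitness as the error-weighted combination of fold changes across replicates, kanamycin versus no kanamycin, normalised to wild type. E. coli BL21(DE3) held the library, which randomised all eight P1ex-region intron nucleotides within the knt kanamycin-resistance gene on pET-22b(+). Six replicate transformations grew overnight at 37°C or 30°C on LB agar with or without 25 μg/mL kanamycin, also containing 100 μg/mL carbenicillin, 50 μM IPTG and 0.2% rhamnose, and pooled colonies were amplicon-sequenced on an Illumina HiSeq 2500.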

| Sequence | self-splicing fitness (ln) (30 °C) | self-splicing fitness (ln) (37 °C) |
| --- | --- | --- |
| CAUAAGCAAUAUUACGGAUU | -3.15 ± 0.19 | -2.25 ± 0.23 |
| CAUAAGCAAUAUUACGGCCG | 0.39 ± 0.15 | 0.125 ± 0.16 |
| CAUAAGCAAUAUUACGGCGU | -2.7 ± 0.15 | -0.836 ± 0.12 |
| CAUAAGCAAUAUUACGGGAU | -3.51 ± 0.16 | -2.3 ± 0.2 |
| CAUAAGCAAUAUUACGGGCC | – | -1.25 ± 0.36 |
| CAUAAGCAAUAUUACGGGUC | -3.31 ± 0.24 | -2.97 ± 0.28 |
| CAUAAGCAAUAUUACGUAAA | -3.55 ± 0.25 | -2.11 ± 0.17 |
| CAUAAGCAAUAUUACGUAGG | -0.808 ± 0.066 | -0.719 ± 0.084 |
| CAUAAGCAAUAUUACGUAUC | -2.78 ± 0.2 | -2.72 ± 0.25 |
| CAUCAGCAAUAUUACGAAGU | -3.41 ± 0.18 | -1.52 ± 0.14 |
| CAUCAGCAAUAUUACGCCGA | -2.57 ± 0.32 | -1.79 ± 0.31 |
| CAUCAGCAAUAUUACGCUAC | -3.62 ± 0.27 | -3.33 ± 0.46 |
| CAUCAGCAAUAUUACGCUCU | -3.31 ± 0.19 | -1.66 ± 0.17 |
| CAUCAGCAAUAUUACGCUUA | -1.77 ± 0.13 | -0.562 ± 0.11 |
| CAUCAGCAAUAUUACGCUUC | -2.2 ± 0.18 | -0.251 ± 0.12 |
| CAUCAGCAAUAUUACGGAAU | -2.46 ± 0.12 | -2.11 ± 0.11 |
| CAUCAGCAAUAUUACGGACU | -3.78 ± 0.22 | -0.896 ± 0.13 |
| CAUCAGCAAUAUUACGGAUG | -4 ± 0.14 | -2.94 ± 0.14 |
| CAUCAGCAAUAUUACGGCAG | -0.68 ± 0.076 | 0.196 ± 0.09 |
| CAUCAGCAAUAUUACGGGUG | -3.28 ± 0.14 | -2.71 ± 0.2 |
| CAUCAGCAAUAUUACGGUCC | -1.37 ± 0.2 | -0.885 ± 0.29 |
| CAUCAGCAAUAUUACGGUGC | -3.55 ± 0.43 | -3.74 ± 0.46 |
| CAUCAGCAAUAUUACGGUGU | -4.64 ± 0.27 | -1.77 ± 0.12 |
| CAUCAGCAAUAUUACGUCGA | -3 ± 0.21 | -2.66 ± 0.24 |
| CAUGAGCAAUAUUACGAAAG | -1.36 ± 0.11 | -1.18 ± 0.14 |

| Sequence | self-splicing fitness (ln) (30 °C) | self-splicing fitness (ln) (37 °C) |
| --- | --- | --- |
| CAUGAGCAAUAUUACGAACG | -0.482 ± 0.082 | -0.421 ± 0.088 |
| CAUGAGCAAUAUUACGAAGC | – | -0.241 ± 0.49 |
| CAUGAGCAAUAUUACGAGAC | -3.32 ± 0.32 | -1.35 ± 0.3 |
| CAUGAGCAAUAUUACGAGGG | -3.79 ± 0.22 | -1.03 ± 0.14 |
| CAUGAGCAAUAUUACGAGUA | -2.36 ± 0.21 | -1.12 ± 0.24 |
| CAUGAGCAAUAUUACGCGAU | -1.87 ± 0.18 | -1.61 ± 0.32 |
| CAUGAGCAAUAUUACGCGGA | -2.6 ± 0.2 | -1.64 ± 0.17 |
| CAUGAGCAAUAUUACGCGUU | -4.13 ± 0.42 | -2.35 ± 0.26 |
| CAUGAGCAAUAUUACGCUUU | – | -3.02 ± 0.24 |
| CAUGAGCAAUAUUACGGAGC | -3.21 ± 0.25 | -3.46 ± 0.35 |
| CAUGAGCAAUAUUACGGCCC | -2.29 ± 0.29 | – |
| CAUGAGCAAUAUUACGGCCG | -1.25 ± 0.12 | -0.62 ± 0.16 |
| CAUGAGCAAUAUUACGGCGC | -3.56 ± 0.25 | -4.32 ± 0.36 |
| CAUGAGCAAUAUUACGGGAU | -3.49 ± 0.3 | – |
| CAUGAGCAAUAUUACGUACG | -0.969 ± 0.074 | 0.257 ± 0.1 |
| CAUGAGCAAUAUUACGUAGG | -1.82 ± 0.08 | -1.46 ± 0.093 |
| CAUGAGCAAUAUUACGUCGC | -3.59 ± 0.29 | -2.13 ± 0.42 |
| CAUGAGCAAUAUUACGUGGC | -3.55 ± 0.25 | -2.46 ± 0.24 |
| CAUGAGCAAUAUUACGUUAG | -1.86 ± 0.081 | -1.11 ± 0.082 |
| CAUUAGCAAUAUUACGACUG | -0.158 ± 0.079 | 0.262 ± 0.092 |
| CAUUAGCAAUAUUACGCAAG | -1.45 ± 0.1 | -0.813 ± 0.13 |
| CAUUAGCAAUAUUACGCAUG | -4.08 ± 0.46 | -3.16 ± 0.4 |
| CAUUAGCAAUAUUACGCGCC | -3.41 ± 0.32 | -2.26 ± 0.35 |
| CAUUAGCAAUAUUACGCGGA | -2.93 ± 0.23 | -1 ± 0.14 |
| CAUUAGCAAUAUUACGCUAC | -3.99 ± 0.4 | -2.13 ± 0.46 |

| Sequence | self-splicing fitness (ln) (30 °C) | self-splicing fitness (ln) (37 °C) |
| --- | --- | --- |
| CAUUAGCAAUAUUACGGAGC | -2.94 ± 0.4 | -2.04 ± 0.23 |
| CAUUAGCAAUAUUACGGAUU | -3.12 ± 0.2 | -1.23 ± 0.21 |
| CAUUAGCAAUAUUACGGGGG | -2.52 ± 0.21 | -1.19 ± 0.15 |
| CAUUAGCAAUAUUACGGGUU | -2.27 ± 0.11 | -0.829 ± 0.12 |
| CAUUAGCAAUAUUACGGUGU | -3.92 ± 0.2 | -3.76 ± 0.23 |
| CAUUAGCAAUAUUACGGUUA | -2.35 ± 0.28 | -0.486 ± 0.17 |
| CAUUAGCAAUAUUACGUAGA | -0.475 ± 0.11 | -1.51 ± 0.2 |
| CAUUAGCAAUAUUACGUCGC | -2.38 ± 0.32 | – |
| CAUUAGCAAUAUUACGUGAU | -3.57 ± 0.12 | -1.87 ± 0.1 |
| CAUUAGCAAUAUUACGUGGG | -3.46 ± 0.17 | -2.76 ± 0.21 |
| CAUUAGCAAUAUUACGUUAG | -0.927 ± 0.092 | -0.609 ± 0.1 |
| CAUUAGCAAUAUUACGUUGG | -2.05 ± 0.085 | -1.03 ± 0.1 |
| CAUUAGCAAUAUUACGUUUC | -2.39 ± 0.33 | -2.2 ± 0.32 |
| CCAAAGCAAUAUUACGAAGG | -3.61 ± 0.15 | -2.9 ± 0.3 |
| CCAAAGCAAUAUUACGACAA | -2.42 ± 0.27 | -2.54 ± 0.28 |
| CCAAAGCAAUAUUACGACUC | -2.53 ± 0.27 | -2.03 ± 0.43 |
| CCAAAGCAAUAUUACGAGAA | -3.52 ± 0.44 | -3 ± 0.35 |
| CCAAAGCAAUAUUACGAGAC | -3.26 ± 0.24 | -2.31 ± 0.23 |
| CCAAAGCAAUAUUACGAUCU | -2.43 ± 0.14 | -2.97 ± 0.35 |
| CCAAAGCAAUAUUACGCAAU | -4.04 ± 0.24 | -1.46 ± 0.18 |
| CCAAAGCAAUAUUACGCAGU | -3.71 ± 0.21 | -1.64 ± 0.16 |
| CCAAAGCAAUAUUACGCCAU | -3.42 ± 0.17 | -1.88 ± 0.17 |
| CCAAAGCAAUAUUACGCUCU | -3.95 ± 0.27 | -2.95 ± 0.23 |
| CCAAAGCAAUAUUACGCUGC | -3.03 ± 0.17 | -1.8 ± 0.18 |
| CCAAAGCAAUAUUACGCUUA | -3.86 ± 0.24 | -3.12 ± 0.22 |

| Sequence | self-splicing fitness (ln) (30 °C) | self-splicing fitness (ln) (37 °C) |
| --- | --- | --- |
| CCAAAGCAAUAUUACGGACA | -2.84 ± 0.2 | -2.86 ± 0.25 |
| CCAAAGCAAUAUUACGGCCA | -2.38 ± 0.24 | -2.76 ± 0.33 |
| CCAAAGCAAUAUUACGGCGG | -3.8 ± 0.15 | -2.48 ± 0.16 |
| CCAAAGCAAUAUUACGGGCA | -3.47 ± 0.19 | -2.86 ± 0.2 |
| CCAAAGCAAUAUUACGGGUG | -1.01 ± 0.053 | -0.233 ± 0.085 |
| CCAAAGCAAUAUUACGGUAG | -1.99 ± 0.056 | -0.962 ± 0.066 |
| CCAAAGCAAUAUUACGGUUU | -3.21 ± 0.12 | -2.34 ± 0.15 |
| CCAAAGCAAUAUUACGUAUG | -0.512 ± 0.059 | -0.574 ± 0.093 |
| CCAAAGCAAUAUUACGUCGG | -3.29 ± 0.18 | -2.23 ± 0.2 |
| CCAAAGCAAUAUUACGUCUA | -3.06 ± 0.23 | -2.06 ± 0.21 |
| CCAAAGCAAUAUUACGUGCA | -2.81 ± 0.18 | -2.9 ± 0.23 |
| CCAAAGCAAUAUUACGUUCA | -2.59 ± 0.17 | -3.38 ± 0.33 |
| CCAAAGCAAUAUUACGUUGC | -3.4 ± 0.15 | -2.12 ± 0.17 |
| CCAAAGCAAUAUUACGUUUU | -3.91 ± 0.14 | -2.75 ± 0.17 |
| CCACAGCAAUAUUACGAACA | -2.78 ± 0.24 | -2.33 ± 0.29 |
| CCACAGCAAUAUUACGAAUA | -2.57 ± 0.15 | -2.59 ± 0.19 |
| CCACAGCAAUAUUACGAAUC | -2.71 ± 0.18 | -2.3 ± 0.3 |
| CCACAGCAAUAUUACGAAUU | -3.64 ± 0.18 | -2.39 ± 0.17 |
| CCACAGCAAUAUUACGACCG | -0.115 ± 0.064 | -0.00245 ± 0.083 |
| CCACAGCAAUAUUACGACUA | -3.08 ± 0.25 | -2.88 ± 0.29 |
| CCACAGCAAUAUUACGAUAU | -3.48 ± 0.2 | -2.01 ± 0.15 |
| CCACAGCAAUAUUACGCAAC | -2.45 ± 0.36 | -1.79 ± 0.33 |
